Assay results reported in article PMC2701625 (Biochemistry, 2009).

Target: the molecule itself
Assay: cross-linking

B1: GST-hHsp90-N520 (GST tagged human hsp90β truncation, residues 520-724) (domain or fragment)
chain: not shown
B1 was tested. Which “stoichiometry N” value did it give?
The value was 4.
